For assay [1], the target named is SIV NEF 155-169 peptide on autologous macaque B-LCL (SIV; rhesus macaque (Macaca mulatta)).
The target in assay [2] is SIV NEF 125-147 peptide (LP2) on autologous macaque B-LCL (SIV; rhesus macaque (Macaca mulatta)).
Assay [3] deals with SIV NEF 125-138 peptide on autologous macaque B-LCL (SIV; rhesus macaque (Macaca mulatta)).
Assay [4] has as its target SIV NEF 164-178 peptide on autologous macaque B-LCL (SIV; rhesus macaque (Macaca mulatta)).
The target of assay [5] is SIV NEF 155-178 peptide (LP3) on autologous macaque B-LCL (SIV; rhesus macaque (Macaca mulatta)).
For assay [6], the target named is SIV NEF 133-147 peptide on autologous macaque B-LCL (SIV; rhesus macaque (Macaca mulatta)).
Assay [7] addresses SIV NEF 160-176 peptide on autologous macaque B-LCL (SIV; rhesus macaque (Macaca mulatta)).
Assay [8] has as its target SIV NEF 201-225 peptide (LP4) on autologous macaque B-LCL (SIV; rhesus macaque (Macaca mulatta)).
Assay [9] concerns the target SIV NEF 155-178 peptide (LP3) on autologous macaque B-LCL (SIV; rhesus macaque (Macaca mulatta)). This is another data set of the same source.
The target in assay [10] is SIV NEF 211-225 peptide on autologous macaque B-LCL (SIV; rhesus macaque (Macaca mulatta)).
For assay [11], the target named is SIV NEF 201-215 peptide on autologous macaque B-LCL (SIV; rhesus macaque (Macaca mulatta)).
The target in assay [12] is SIV GAG 246-282 peptide (LP7) on autologous macaque B-LCL (SIV; rhesus macaque (Macaca mulatta)).
The target of assay [13] is SIV GAG 165-185 peptide on autologous macaque B-LCL (SIV; rhesus macaque (Macaca mulatta)).
Assay [14] concerns the target SIV GAG 165-195 peptide (LP6) on autologous macaque B-LCL (SIV; rhesus macaque (Macaca mulatta)).
The target of assay [15] is SIV GAG 176-195 peptide on autologous macaque B-LCL (SIV; rhesus macaque (Macaca mulatta)).

Regarding “CTL line from PBMC of immunized macaque RS20, restimulated with the mixture of the 7 peptides (cells without a defined receptor)”, the specific 51Cr release (CRT) (percent specific chromium release) in assay [1] was 14; in [4], 49; in assay [5], 87; in [7], 6. In addition, the results for the specific 51Cr release (CRT), E/T 60:1 and 20:1 (percent specific chromium release) in [2], in [3] and in [6] were 72, 85 and 4, respectively.
“CTL line from PBMC of immunized macaque RS21, restimulated with the mixture of the 7 peptides (cells without a defined receptor)” came in with a specific 51Cr release (CRT), E/T 70:1 (% specific lysis) in assay [8] of 35.
In assay [9], “CTL line from PBMC of immunized macaque RS6, restimulated with the mixture of the 7 peptides (cells without a defined receptor)” displayed a specific 51Cr release (CRT), E/T 70:1 (% specific lysis) of 40.
In turn, “CTL line from PBMC of immunized macaque RS23, restimulated with the mixture of the 7 peptides (cells without a defined receptor)” gave a specific 51Cr release (CRT), E/T 70:1 (% specific lysis) in [8] of 42. Besides, the specific 51Cr release (CRT), E/T 60:1 and 20:1 (percent specific chromium release) in assay [10] was found to be 0; in assay [11] it was 18.
In assay [12], “CTL line from PBMC of immunized macaque RS7, restimulated with the mixture of the 7 peptides (cells without a defined receptor)” came in with a specific 51Cr release (CRT), E/T 70:1 (% specific lysis) of 59.
The substance “CTL line from PBMC of immunized macaque RS17, restimulated with the mixture of the 7 peptides (cells without a defined receptor)” yielded a specific 51Cr release (CRT), E/T 70:1 (% specific lysis) in assay [9] of 44. Further, the results for the specific 51Cr release (CRT), E/T 60:1 and 20:1 (percent specific chromium release) in assay [1], in [4] and in assay [7] were 0, 46 and 0, respectively.
As to “CTL line from PBMC of immunized macaque RS4, restimulated with the mixture of the 7 peptides (cells without a defined receptor)”, the values for the specific 51Cr release (CRT), E/T 60:1 and 20:1 (percent specific chromium release) in assay [13], in [14] and in [15] were 8, 57 and 35, respectively.

The values above are taken from patent publication US5993823.
